Source: PMC12623983
Where a chain is given by its changes, count along the chain named. Names and notes keep the numbering of the source.

B1: human NMT2 (N-myristoyltransferase 2), wild type, O60551 R306E; R324E; K327E (protein)
chain: MAEDSESAASQQSLELDDQDTCGIDGDNEEETEHAKGSPGGYLGAKKKKKKQKRKKEKPNSGGTKSDSASDSQEIKIQQPSKNPSVPMQKLQDIQRAMELLSACQGPARNIDEAAKHRYQFWDTQPVPKLDEVITSHGAIEPDKDNVRQEPYSLPQGFMWDTLDLSDAEVLKELYTLLNENYVEDDDNMFRFDYSPEFLLWALRPPGWLLQWHCGVRVSSNKKLVGFISAIPANIRIYDSVKKMVEINFLCVHKKLRSKRVAPVLIREITRRVNLEGIFQAVYTAGVVLPKPIATCRYWHRSLNPEKLVEVKFSHLSRNMTLQETMELYRLPDVTKTSGLRPMEPKDIKSVRELINTYLKQFHLAPVMDEEEVAHWFLPREHIIDTFVVESPNGKLTDFLSFYTLPSTVMHHPAHKSLKAAYSFYNIHTETPLLDLMSDALILAKSKGFDVFNALDLMENKTFLEKLKFGIGDGNLQYYLYNWRCPGTDSEKVGLVLQ
B2: human NMT2 (N-myristoyltransferase 2), wild type, O60551 R324E; K327E (protein)
chain: B1 chain with E306R
B3: human NMT2 (N-myristoyltransferase 2), wild type, O60551 R306E (protein)
chain: B1 chain with E324R, E327K

molecular target: ribosomes from HEK293 cells (80S ribosomes, empty ribosomes), P62750;P62906; test: co-sedimentation assay with immunoblot quantification; details: chain shown with the change; NMT2 alone with ribosomes (no NAC); three independent replicates; parent: est. 1.0; read off a plot

ratio to parent	Binder
0.27	B1
0.32	B2
0.35	B3

same assay, conditions: chain shown with the change; NMT2 with ribosomes in the presence of NAC; three independent replicates; parent: est. 2.2; read off a plot

response (normalized intensity)	Binder
0.3	B1
0.45	B2
0.85	B3
